These results are taken from patent US10196445 (Bristol-Myers Squibb, dated 2019).

In the assay the target is CTLA4 CD3 zeta on the 58 α-β-CTLA4 CD3 zeta expressing cell line (human). Description: cell-based or functional assay.
Sequence of CTLA4 CD3 zeta on the 58 α-β-CTLA4 CD3 zeta expressing cell line (human) (P16410 36-161): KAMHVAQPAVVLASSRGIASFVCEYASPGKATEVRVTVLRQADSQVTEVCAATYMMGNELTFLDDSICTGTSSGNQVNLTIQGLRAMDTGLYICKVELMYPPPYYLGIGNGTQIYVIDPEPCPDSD

B1: ipilimumab (antibody, human IgG1, kappa, V domains shown)
VH: QVQLVESGGGVVQPGRSLRLSCAASGFTFSSYTMHWVRQAPGKGLEWVTFISYDGNNKYYADSVKGRFTISRDNSKNTLYLQMNSLRAEDTAIYYCARTGWLGPFDYWGQGTLVTVSS
VL: not shown
For B1, the “EC50 of NK92 cell-mediated specific lysis (calcein release) of 58 α-β-CTLA4 CD3 zeta cells” value was 0.13 ng/mL.

B2: non-fucosylated ipilimumab (antibody, human IgG1, kappa, V domains shown)
VH: QVQLVESGGGVVQPGRSLRLSCAASGFTFSSYTMHWVRQAPGKGLEWVTFISYDGNNKYYADSVKGRFTISRDNSKNTLYLQMNSLRAEDTAIYYCARTGWLGPFDYWGQGTLVTVSS
VL: not shown
modifications: non-fucosylated (no fucose on the Asn297-linked oligosaccharide)
Take B2: the “EC50 of NK92 cell-mediated specific lysis (calcein release) of 58 α-β-CTLA4 CD3 zeta cells” value is 0.0056 ng/mL.
